Measured values from article doi:10.1101/2024.09.20.614047, “The Role of ATP Synthase Subunit e (ATP5I) in Mediating the Metabolic and Antiproliferative Effects of Metformin” (bioRxiv, 2024).

Target: the molecule itself
Assay: SEC; gel filtration of purified rATP5I (Superose 12 10/300 GL in legend B; calibrated Superose 6 10/300 GL in legend C); oligomeric state of the protein in solution

B1: recombinant purified ATP5I (ATP synthase subunit e), N-terminal 6x-His-tagged (natural protein, human, UniProt P56385 1-69, looked up)
chain: MVPPVQVSPLIKLGRYSALFLGVAYGATRYNYLKPRAEEERRIAAEEKKKQDELKRIARELAEDDSILK
notes: No cleavage of the His tag is described; the gel filtration legend names the Nter-6×His-ATP5I construct; also called rATP5I; recombinant ATP5I; source: Rosetta E. coli BL21, purified (solubilised in 6 M guanidine, HisTrap FF, desalting column, concentrated); not shown: 6x-His, N-terminal, kept
- stoichiometry N: ~10
